# B1: CPEB3 Ribozyme (parent)
# chain: GGGGGCCACAGCAGAAGCGUUCACGUCGCGGCCCCUGUCAGAUUCUGGUGAAUCUGCGAAUUCUGCUGU
# Variants of: B1
# Assay: self-cleavage, relative activity (ratio to wild type); higher = more cleavage; co-transcriptional
row,Variant,self-cleavage
1,GGGGGCCACAGCAGAAGCGUCCACGUCGCGGCCCCUGUCAGAUUCUGGUGAUUCUGCGAAUUCUGCUGU,0.93
2,GGGGGCCACAGCAGAAGCGUCCACGUCGCGGCCCCUGUCAGAUUCUGGUGAGUCUGCGAAUUCUGCUGU,0.887
3,GGGGGCCACAGCAGAAGCGUCCACGUCGCGGCCCCUGUCAGAUUCUGGUGAAUCUGGGAAUUCUGCUGU,0.384
4,GGGGGCCACAGCAGAAGCGUCCACGUCGCGGCCCCUGUCAGCUUCUGGUGAAUCUGCGAAUUCUGCUGU,0.853
5,GGGGGCCACAGCAGAAGCGUACACGUCGCGGCCCCUAUCAGAUUCUGGUGAAUCUGCGAAUUCUGCUGU,0.283
6,GGGGGCCACAGCAGAAGCGUACACGUCGCGGCCCCUCUCAGAUUCUGGUGAAUCUGCGAAUUCUGCUGU,0.217
7,GGGGGCCACAGCAGAAGCGUCCACGUCGCGGCCCCUGUCAGAUUCUGGUGAAUCUGCGAAUUCUGCUUU,1
8,GGGGGCCACAGCAGAAGCGUCCACGUCGCGGCCCCUGUCAGAUUCUGGUGAAUCUGCGAAUUCUGCUCU,0.899
9,GGGGGCCACAGCAGAAGCGUACACGUCGCGGCCCCUGUCAGAUUCUGGUGAAUCUGCGAAUUCGGCUGU,0.898
10,GGGGGCCACAGCAGAAGCGUACACGUCGCGGCCCCUGUCAGAUUCUGGUUAAUCUGCGAAUUCUGCUGU,0.971
11,GGGGGCCACAGCAGAAGCGUACACGUCUCGGCCCCUGUCAGAUUCUGGUGAAUCUGCGAAUUCUGCUGU,0.241
12,GGGGGCCACAGCAGAAGCGUACACGUCGCGGCCCGUGUCAGAUUCUGGUGAAUCUGCGAAUUCUGCUGU,0.198
13,GGGGGCCACAGCAGAAGCGUACACGUCGCGGCCCCUGUCAGAUUCUGGUGAAUCAGCGAAUUCUGCUGU,0.916
14,GGGGGCCACAGCAGAAGCGUACACGUCGCGGCCCCUGUCAGAUUCUGGUGAAUCGGCGAAUUCUGCUGU,0.811
15,GGGGGCCACAGCAGAAGCGUACACGUCGCGGCCCCUGUCAGAUUCUGCUGAAUCUGCGAAUUCUGCUGU,1.01
16,GGGGGCCACAGCAGAAGCGUGCACGUAGCGGCCCCUGUCAGAUUCUGGUGAAUCUGCGAAUUCUGCUGU,0.196
17,GGGGGCCACAGCAGAAGCGUGCACGUUGCGGCCCCUGUCAGAUUCUGGUGAAUCUGCGAAUUCUGCUGU,0.112
18,GGGGGCCACAGCAGAAGCGUCCACGUCGCGGCCCCUGUCAGAUUCUGGUGAAUCUGCGAAUUCUGCUGA,0.885
19,GGGGGCCACAGCAGAAGCGUCCACGUCGCGGCCCCUGUCAGAUUCUGGUGAAUCUGCGAAUUCUGCUGG,0.933
20,GGGGGCCACAGCAGAAGCGUACACGUCGCGGCCCCUGUCAGAUUCUGGUGAAUCUGCGAAUUCUGUUGU,0.985
21,GGGGGCCACAGCAGAAGCGUGCACGUCGCGGCCCCUGUCAGAUUCUGGUGAAUCUGCGACUUCUGCUGU,0.235
22,GGGGGCCACAGCAGAAGCGUGCACGUCGCGGCCCCUGUCAGAUUCUGGUGACUCUGCGAAUUCUGCUGU,0.459
23,GGGGGCCACAGCAGAAGCGUACACGUCGCGGCCCCUGUAAGAUUCUGGUGAAUCUGCGAAUUCUGCUGU,0.911
24,GGGGGCCACAGCAGAAGCGUCCACGUCGCGGCCCCUGUCAGAUUCUGGUGAAUCGGCGAAUUCUGCUGU,0.723
25,GGGGGCCACAGCAGAAGCGUCCACGUCGCGGCCCCUGUCAGAUUCUGGUGAAUCAGCGAAUUCUGCUGU,0.843
26,GGGGGCCACAGCAGAAGCGUCCACGUCGCGGCCCCUAUCAGAUUCUGGUGAAUCUGCGAAUUCUGCUGU,0.261

row,Variant,self-cleavage
1,GGGGGCCACAGCAGAAGCGUCCACGUCGCGGCCCCUUUCAGAUUCUGGUGAAUCUGCGAAUUCUGCUGU,0.264
2,GGGGGCCACAGCAGAAGCGUCCAAGUCGCGGCCCCUGUCAGAUUCUGGUGAAUCUGCGAAUUCUGCUGU,0.376
3,GGGGGCCACAGCAGAAGCGUGCACGUCGCGGCCCCUGUCCGAUUCUGGUGAAUCUGCGAAUUCUGCUGU,0.222
4,GGGGGCCACAGCAGAAGCGUCCACGUCGCGGCCCCUGUCAGAUUCUGGUGAAUCUCCGAAUUCUGCUGU,0.426
5,GGGGGCCACAGCAGAAGCGUCCACGUCGCGGCCCCUGUCAGAUGCUGGUGAAUCUGCGAAUUCUGCUGU,0.859
6,GGGGGCCACAGCAGAAGCGUCCACGUCGCGGCCCCUGUCAGAUACUGGUGAAUCUGCGAAUUCUGCUGU,0.911
7,GGGGGCCACAGCAGAAGCGUCCACGUCGCGGCCCCUGUCAGAUCCUGGUGAAUCUGCGAAUUCUGCUGU,0.824
8,GGGGGCCACAGCAGAAGCGUGCGCGUCGCGGCCCCUGUCAGAUUCUGGUGAAUCUGCGAAUUCUGCUGU,0.549
9,GGGGGCCACAGCAGAAGCGUCCACGUCACGGCCCCUGUCAGAUUCUGGUGAAUCUGCGAAUUCUGCUGU,0.192
10,GGGGGCCACAGCAGAAGCGUACACGUCGCGCCCCCUGUCAGAUUCUGGUGAAUCUGCGAAUUCUGCUGU,0.221
11,GGGGGCCACAGCAGAAGCGUCCACGUCGCGGCCCCUGUCAGAUUCUGGUGAAUCUGCGAAAUCUGCUGU,0.538
12,GGGGGCCACAGCAGAAGCGUCCACGUCGCGGCCCCUGUCAGAUUGUGGUGAAUCUGCGAAUUCUGCUGU,0.864
13,GGGGGCCACAGCAGAAGCGUCCACGUCGCGGCCCAUGUCAGAUUCUGGUGAAUCUGCGAAUUCUGCUGU,0.229
14,GGGGGCCACAGCAGAAGCGUCCACGUCGCGGCCCCUGUCAGACUCUGGUGAAUCUGCGAAUUCUGCUGU,0.875
15,GGGGGCCACAGCAGAAGCGUCCACGUCGCGGCCCCUGUCAGAUUCUGGUGGAUCUGCGAAUUCUGCUGU,0.914
16,GGGGGCCACAGCAGAAGCGUCCACGUGGCGGCCCCUGUCAGAUUCUGGUGAAUCUGCGAAUUCUGCUGU,0.209
17,GGGGGCCACAGCAGAAGCGUCCACGUCGCGGCCCCUGUCAGAUUCUGGUGAAUCUGCGACUUCUGCUGU,0.406
18,GGGGGCCACAGCAGAAGCGUCCACGUCGCGGCCCCUGUCAGAUUCCGGUGAAUCUGCGAAUUCUGCUGU,0.89
19,GGGGGCCACAGCAGAAGCGUCCACGUCGCGGCCCCUGUCAGAUUCUGGUGAAUCUGCGAAUUCAGCUGU,0.706
20,GGGGGCCACAGCAGAAGCGUCCACGUCGCGGCCCCUGUCAGAUUCUGGUGAAUCUGCGAAUACUGCUGU,0.661
21,GGGGGCCACAGCAGAAGCGUACACGUCGCGGCCCCUGUCAGAUUCUGGUGAAUCUGCGAAUUCUGCGGU,1.02
22,GGGGGCCACAGCAGAAGCGUCCACGUCGCGGCCCCUGUCAGAUUCUGGUGAAUCUGCGAAUUCUGCGGU,0.978
23,GGGGGCCACAGCAGAAGCGUGCACGUCGCGGCCCCUGUCAGGUUCUGGUGAAUCUGCGAAUUCUGCUGU,0.558
24,GGGGGCCACAGCAGAAGCGUCCACGUCGAGGCCCCUGUCAGAUUCUGGUGAAUCUGCGAAUUCUGCUGU,0.274
25,GGGGGCCACAGCAGAAGCGUGCACGUCGCGGCCUCUGUCAGAUUCUGGUGAAUCUGCGAAUUCUGCUGU,0.53
26,GGGGGCCACAGCAGAAGCGUGCACGUCGCGGCCGCUGUCAGAUUCUGGUGAAUCUGCGAAUUCUGCUGU,0.193

row,Variant,self-cleavage
1,GGGGGCCACAGCAGAAGCGUGCACGUCGAGGCCCCUGUCAGAUUCUGGUGAAUCUGCGAAUUCUGCUGU,0.242
2,GGGGGCCACAGCAGAAGCGUCCACGUCGCGGCCCCUGUCAGAUUCUGAUGAAUCUGCGAAUUCUGCUGU,0.933
3,GGGGGCCACAGCAGAAGCGUACACGUCGCGGCCCCUGUCAGACUCUGGUGAAUCUGCGAAUUCUGCUGU,0.909
4,GGGGGCCACAGCAGAAGCGUCCACGUCGCGGCCCCUGUGAGAUUCUGGUGAAUCUGCGAAUUCUGCUGU,0.895
5,GGGGGCCACAGCAGAAGCGUCCACGUCGCGGCCCCUGUCAGAUUCUGGUGAAUCUGCGAAUUCUGAUGU,0.611
6,GGGGGCCACAGCAGAAGCGUCCACGUCGCGGCACCUGUCAGAUUCUGGUGAAUCUGCGAAUUCUGCUGU,0.516
7,GGGGGCCACAGCAGAAGCGUCCACGUCGCGGCGCCUGUCAGAUUCUGGUGAAUCUGCGAAUUCUGCUGU,0.217
8,GGGGGCCACAGCAGAAGCGUCCACGUCGCGGCCCCUGUCAGAUUCUGGUGAAGCUGCGAAUUCUGCUGU,0.724
9,GGGGGCCACAGCAGAAGCGUGCAGGUCGCGGCCCCUGUCAGAUUCUGGUGAAUCUGCGAAUUCUGCUGU,0.0852
10,GGGGGCCACAGCAGAAGCGUACACGUCGCGGCCCCUGUCAGAUUCUGGUGAAUCUGCGAAUUCUGCUAU,1.02
11,GGGGGCCACAGCAGAAGCGUACACGUCGCGGCCCCUGUCAGAUUCUGGUGAAUCUGCUAAUUCUGCUGU,0.996
12,GGGGGCCACAGCAGAAGCGUACACGUCGCGGCCCCUGUCAGAUUCUGGUGAAUCUGCCAAUUCUGCUGU,0.938
13,GGGGGCCACAGCAGAAGCGUCCACGUCGCGACCCCUGUCAGAUUCUGGUGAAUCUGCGAAUUCUGCUGU,0.569
14,GGGGGCCACAGCAGAAGCGUCCACGUCGCGCCCCCUGUCAGAUUCUGGUGAAUCUGCGAAUUCUGCUGU,0.16
15,GGGGGCCACAGCAGAAGCGUACACGUCGCGGCCCCUGUCAGAUUCUGGUGAAUCUGCGAACUCUGCUGU,0.728
16,GGGGGCCACAGCAGAAGCGUGCACGUCGCGGCCCCUGUCAGAUUCUGGUGAAUCUGCGUAUUCUGCUGU,0.219
17,GGGGGCCACAGCAGAAGCGUGCACGUCGCGGCCCCUGUCAGAUUCUGGUGAAUCUGCGGAUUCUGCUGU,0.675
18,GGGGGCCACAGCAGAAGCGUACACGUCGCGGCCCCUGUCAGAUUCUGGUGAAUCUGCGAAUUCUUCUGU,0.795
19,GGGGGCCACAGCAGAAGCGUACACGUCGCGGCCCCUGUCAGAUUCUGGUGAAUCUGCGAAUUCUACUGU,0.862
20,GGGGGCCACAGCAGAAGCGUACACGUCGCGGCCCCUGUCAGAUUCUGGUGAAUCUGCGAAUCCUGCUGU,0.844
21,GGGGGCCACAGCAGAAGCGUCCACGUCGCGGCCCCUGUCAGAUUCUGGUGAAUCUGCGCAUUCUGCUGU,0.351
22,GGGGGCCACAGCAGAAGCGUCCGCGUCGCGGCCCCUGUCAGAUUCUGGUGAAUCUGCGAAUUCUGCUGU,0.76
23,GGGGGCCACAGCAGAAGCGUCUACGUCGCGGCCCCUGUCAGAUUCUGGUGAAUCUGCGAAUUCUGCUGU,0.268
24,GGGGGCCACAGCAGAAGCGUCGACGUCGCGGCCCCUGUCAGAUUCUGGUGAAUCUGCGAAUUCUGCUGU,0.0423
25,GGGGGCCACAGCAGAAGCGUACACGUCGCAGCCCCUGUCAGAUUCUGGUGAAUCUGCGAAUUCUGCUGU,0.866
26,GGGGGCCACAGCAGAAGCGUCCACGACGCGGCCCCUGUCAGAUUCUGGUGAAUCUGCGAAUUCUGCUGU,0.216

# — the RNAGym collection of RNA variant scans (doi:10.7554/elife.80360)
